Experimental data as given in article PMC10191836.

Tests used:
[1] = molecular target: fibrillin microfibrils purified from bovine ciliary zonules (bovine (endogenous in ciliary zonule)); assay: cryo-EM structure; native bovine ciliary zonule microfibrils in 20 mM Tris-HCl, 150 mM NaCl, 2 mM CaCl2 pH 7.4; single-particle reconstruction of bead (9.7 Å) and arm (18.3 Å) regions, C2 symmetry imposed
[2] = molecular target: fibrillin microfibrils purified from bovine ciliary zonules (bovine (endogenous in ciliary zonule)); assay: STEM mass mapping; full-length LTBP-1 incubated with bovine microfibrils at a 2:1 molar ratio for 4 h at 4 °C; mass per microfibril repeat with and without LTBP-1

| Substance | fibrillin monomers per microfibril repeat (monomers per repeat) [1] | stoichiometry N (LTBP-1 molecules per microfibril repeat) [2] |
| --- | --- | --- |
| fibrillin microfibrils purified from bovine ciliary zonules (complex) | 8 |  |
| full-length human LTBP-1S (short splice form of latent TGFβ-binding protein-1) (natural protein) |  | 2 |
